First the molecules themselves.
B1: R29D, Y31L, Q33H, K36G, M38I, T41A, M43R, M47T, A91G, I118V, T120S, I127T, T130A, H188D (protein)
chain: VIHVTKEVKEVATLSCGHNVSVEELAQTDILWHKEGKIVLAMRSGDTNIWPEYKNRTIFDITNNLSIVILALRPSDEGTYECVVLKYEKDGFKREHLAEVTLSVKADFPTPSISDFEVPSSNIRRITCSASGGFPEPHLSWLENGEELNAINTTVSQDPETELYAVSSKLDFNMTTNHSFMCLIKYGDLRVNQTFNWNTTKQEHFPDN
B2: R29D, Y31L, Q33H, K36G, M38I, T41A, M43R, M47T, L70Q, D76G, A91G, S103L, I118V, T120S, I127T, T130A (protein)
chain: VIHVTKEVKEVATLSCGHNVSVEELAQTDILWHKEGKIVLAMRSGDTNIWPEYKNRTIFDITNNLSIVIQALRPSGEGTYECVVLKYEKDGFKREHLAEVTLLVKADFPTPSISDFEVPSSNIRRITCSASGGFPEPHLSWLENGEELNAINTTVSQDPETELYAVSSKLDFNMTTNHSFMCLIKYGHLRVNQTFNWNTTKQEHFPDN
B3: Y53C/L70Q/D90G/T130A/N149D/N152T/H188D (protein)
chain: VIHVTKEVKEVATLSCGHNVSVEELAQTRIYWQKEKKMVLTMMSGDMNIWPECKNRTIFDITNNLSIVIQALRPSDEGTYECVVLKYEKGAFKREHLAEVTLSVKADFPTPSISDFEIPTSNIRRIICSASGGFPEPHLSWLENGEELDAITTTVSQDPETELYAVSSKLDFNMTTNHSFMCLIKYGDLRVNQTFNWNTTKQEHFPDN
B4: K89E, K93E, T130A (protein)
chain: VIHVTKEVKEVATLSCGHNVSVEELAQTRIYWQKEKKMVLTMMSGDMNIWPEYKNRTIFDITNNLSIVILALRPSDEGTYECVVLKYEEDAFEREHLAEVTLSVKADFPTPSISDFEIPTSNIRRIICSASGGFPEPHLSWLENGEELNAINTTVSQDPETELYAVSSKLDFNMTTNHSFMCLIKYGHLRVNQTFNWNTTKQEHFPDN
modifications: CD80 v91 ECD
B5: Y53C, L85R, K89N, A91T, F92P, K93V, R94L, I118V, T120S, I127T, T130A, K169E (protein)
chain: VIHVTKEVKEVATLSCGHNVSVEELAQTRIYWQKEKKMVLTMMSGDMNIWPECKNRTIFDITNNLSIVILALRPSDEGTYECVVRKYENDTPVLEHLAEVTLSVKADFPTPSISDFEVPSSNIRRITCSASGGFPEPHLSWLENGEELNAINTTVSQDPETELYAVSSELDFNMTTNHSFMCLIKYGHLRVNQTFNWNTTKQEHFPDN
B6: L70Q, A91G, I118V, T120S, T130A, K169E (protein)
chain: VIHVTKEVKEVATLSCGHNVSVEELAQTRIYWQKEKKMVLTMMSGDMNIWPEYKNRTIFDITNNLSIVIQALRPSDEGTYECVVLKYEKDGFKREHLAEVTLSVKADFPTPSISDFEVPSSNIRRIICSASGGFPEPHLSWLENGEELNAINTTVSQDPETELYAVSSELDFNMTTNHSFMCLIKYGHLRVNQTFNWNTTKQEHFPDN
modifications: CD80 v125 ECD
B7: R29D, Y31L, Q33H, K36G, M38I, T41A, M43R, M47T, T62S, E81V, L85R, K89N, A91T, F92P, K93V, R94L, I118V, T120S, T130A, K169E, T175A (protein)
chain: VIHVTKEVKEVATLSCGHNVSVEELAQTDILWHKEGKIVLAMRSGDTNIWPEYKNRTIFDISNNLSIVILALRPSDEGTYVCVVRKYENDTPVLEHLAEVTLSVKADFPTPSISDFEVPSSNIRRIICSASGGFPEPHLSWLENGEELNAINTTVSQDPETELYAVSSELDFNMATNHSFMCLIKYGHLRVNQTFNWNTTKQEHFPDN
B8: R29D, Y31L, Q33H, K36G, M38I, T41A, M43R, M47T, E81V, L85R, K89N, A91T, F92P, K93V, R94L, S129L, H188D (protein)
chain: VIHVTKEVKEVATLSCGHNVSVEELAQTDILWHKEGKIVLAMRSGDTNIWPEYKNRTIFDITNNLSIVILALRPSDEGTYVCVVRKYENDTPVLEHLAEVTLSVKADFPTPSISDFEIPTSNIRRIICLTSGGFPEPHLSWLENGEELNAINTTVSQDPETELYAVSSKLDFNMTTNHSFMCLIKYGDLRVNQTFNWNTTKQEHFPDN
B9: T62S, E81V, L85R, K89N, A91T, F92P, K93V, R94L, I118V, T120S, T130A, K169E (protein)
chain: VIHVTKEVKEVATLSCGHNVSVEELAQTRIYWQKEKKMVLTMMSGDMNIWPEYKNRTIFDISNNLSIVILALRPSDEGTYVCVVRKYENDTPVLEHLAEVTLSVKADFPTPSISDFEVPSSNIRRIICSASGGFPEPHLSWLENGEELNAINTTVSQDPETELYAVSSELDFNMTTNHSFMCLIKYGHLRVNQTFNWNTTKQEHFPDN
B10: H18L, R29D, Y31L, Q33H, K36G, M38I, T41A, M43R, M47T, E81V, L85R, K89N, A91T, F92P, K93V, R94L, I118V, T120S, I127T, T130A, L142S, H188D (protein)
chain: VIHVTKEVKEVATLSCGLNVSVEELAQTDILWHKEGKIVLAMRSGDTNIWPEYKNRTIFDITNNLSIVILALRPSDEGTYVCVVRKYENDTPVLEHLAEVTLSVKADFPTPSISDFEVPSSNIRRITCSASGGFPEPHLSWSENGEELNAINTTVSQDPETELYAVSSKLDFNMTTNHSFMCLIKYGDLRVNQTFNWNTTKQEHFPDN
B11: H18L, R29D, Y31L, Q33H, K36G, M38I, T41A, M43R, M47T, P74L, Y80N, E81V, L85R, K89N, A91T, F92P, K93V, R94L, L97R (protein)
chain: VIHVTKEVKEVATLSCGLNVSVEELAQTDILWHKEGKIVLAMRSGDTNIWPEYKNRTIFDITNNLSIVILALRLSDEGTNVCVVRKYENDTPVLEHRAEVTLSVKADFPTPSISDFEIPTSNIRRIICSTSGGFPEPHLSWLENGEELNAINTTVSQDPETELYAVSSKLDFNMTTNHSFMCLIKYGHLRVNQTFNWNTTKQEHFPDN
B12: H18L, R29D, Y31L, Q33H, K36G, M38I, T41A, M43R, M47T, E81V, L85R, K89N, A91T, F92P, K93V, R94L, I118V, T120S, I127T, T130A, H188D (protein)
chain: VIHVTKEVKEVATLSCGLNVSVEELAQTDILWHKEGKIVLAMRSGDTNIWPEYKNRTIFDITNNLSIVILALRPSDEGTYVCVVRKYENDTPVLEHLAEVTLSVKADFPTPSISDFEVPSSNIRRITCSASGGFPEPHLSWLENGEELNAINTTVSQDPETELYAVSSKLDFNMTTNHSFMCLIKYGDLRVNQTFNWNTTKQEHFPDN
B13: R29D, Y31L, Q33H, K36G, M38I, T41A, M43R, M47T, L70Q, E81V, L85R, K89N, A91T, F92P, K93V, R94L, I118V, T120S, I127T, T130A (protein)
chain: VIHVTKEVKEVATLSCGHNVSVEELAQTDILWHKEGKIVLAMRSGDTNIWPEYKNRTIFDITNNLSIVIQALRPSDEGTYVCVVRKYENDTPVLEHLAEVTLSVKADFPTPSISDFEVPSSNIRRITCSASGGFPEPHLSWLENGEELNAINTTVSQDPETELYAVSSKLDFNMTTNHSFMCLIKYGHLRVNQTFNWNTTKQEHFPDN
B14: H18L, R29D, Y31L, Q33H, K36G, M38I, T41A, M43R, M47T, E81V, L85R, K89N, A91T, F92P, K93V, R94L, F116S, T130A, H188D (protein)
chain: VIHVTKEVKEVATLSCGLNVSVEELAQTDILWHKEGKIVLAMRSGDTNIWPEYKNRTIFDITNNLSIVILALRPSDEGTYVCVVRKYENDTPVLEHLAEVTLSVKADFPTPSISDSEIPTSNIRRIICSASGGFPEPHLSWLENGEELNAINTTVSQDPETELYAVSSKLDFNMTTNHSFMCLIKYGDLRVNQTFNWNTTKQEHFPDN
B15: C16S, H18L, R29D, Y31L, Q33H, K36G, M38I, T41A, M43R, M47T, E81V, L85R, K89N, A91T, F92P, K93V, R94L, T110A, I118V, H188D (protein)
chain: VIHVTKEVKEVATLSSGLNVSVEELAQTDILWHKEGKIVLAMRSGDTNIWPEYKNRTIFDITNNLSIVILALRPSDEGTYVCVVRKYENDTPVLEHLAEVTLSVKADFPAPSISDFEVPTSNIRRIICSTSGGFPEPHLSWLENGEELNAINTTVSQDPETELYAVSSKLDFNMTTNHSFMCLIKYGDLRVNQTFNWNTTKQEHFPDN
B16: S21P, R29D, Y31L, Q33H, K36G, M38I, T41A, M43R, M47T, N48I, V68A, E81V, L85R, K89N, A91T, F92P, K93V, R94L,P109H, I126L, K169I (protein)
chain: VIHVTKEVKEVATLSCGHNVPVEELAQTDILWHKEGKIVLAMRSGDTIIWPEYKNRTIFDITNNLSIAILALRPSDEGTYVCVVRKYENDTPVLEHLAEVTLSVKADFHTPSISDFEIPTSNIRRLICSTSGGFPEPHLSWLENGEELNAINTTVSQDPETELYAVSSILDFNMTTNHSFMCLIKYGHLRVNQTFNWNTTKQEHFPDN

“And” between values parts separate entries of the source, which are not always exact repeats. Identical values can stand only once.

For the test, the system named is human pan T cells. The test can be described thus: Anti-CD3 coimmobilization assay, IFN-gamma. In kind it is cell-based. As to conditions: Table E34; culture supernatant, 3 days. As for the experimental part: Costimulatory bioactivity of CD80 fusion variants was determined in anti-CD3 coimmobilization assays. 1 nM or 4 nM mouse anti-human CD3 (OKT3, Biolegends, USA) was diluted in PBS with 1 nM to 80 nM rCD80.Fc variant proteins. This mixture was added to tissue culture treated flat bottom 96-well plates (Corning, USA) overnight to facilitate adherence of the stimulatory proteins to the wells of the plate. The next day, unbound protein was washed off the plates and 100,000 purified human pan T cells (BenTech Bio, US) or human T cell clone BC3 (Astarte Biologics, USA) were added to each well in a final volume of 200 μl of Ex-Vivo 15 media (Lonza, Switzerland). Cells were cultured 3 days before harvesting culture supernatants and measuring human IFN-gamma levels with Duoset ELISA kit (R&D Systems, USA) as described above.
B1: the “Anti-CD3 IFN-gamma Coimmobilization Assay” value worked out at 125 pg/mL.
In the case of B2 it was 224 pg/mL; in that of B3, 122 pg/mL.
Turning to B4, the “Anti-CD3 IFN-gamma Coimmobilization Assay” value is 571 pg/mL.
For the molecule B5, the “Anti-CD3 IFN-gamma Coimmobilization Assay” value was found to be 75 pg/mL.
Turning to B6, the “Anti-CD3 IFN-gamma Coimmobilization Assay” value was 115 pg/mL.
The figure for B7 is 114 pg/mL.
For B8, the “Anti-CD3 IFN-gamma Coimmobilization Assay” value worked out at 87 pg/mL.
Take B9: the “Anti-CD3 IFN-gamma Coimmobilization Assay” value is 107 pg/mL.
On to B10, for which the “Anti-CD3 IFN-gamma Coimmobilization Assay” value was 143 pg/mL.
For B11, the “Anti-CD3 IFN-gamma Coimmobilization Assay” value worked out at 18 pg/mL.
Turning to B12, the “Anti-CD3 IFN-gamma Coimmobilization Assay” value was determined as 108 pg/mL.
For the molecule B13, the “Anti-CD3 IFN-gamma Coimmobilization Assay” value was 162 pg/mL and 135 pg/mL.
The figure for B14 is 114 pg/mL; for B15 it is 247 pg/mL.
On to B16, for which the “Anti-CD3 IFN-gamma Coimmobilization Assay” value came out at 137 pg/mL.

The values are drawn from patent US20220177587A1, “METHODS AND USES OF VARIANT CD80 FUSION PROTEINS AND RELATED CONSTRUCTS” (Alpine Immune Sciences, Inc., priority 2018, published 2022).
